Measured values from patent US20050261472A1, “Binding moieties for fibrin” (Dyax Corp., priority 1999, published 2005).
Bridge positions count the residues as written; N and C are the ends. Ends that are not written are not given here.

Key:
dried fibrin [1] = target: T1, dried fibrin (UniProt P02671 36-629; P02675 45-491; P02679 27-437, limits assumed); experiment: ratio of Kd for fibrinogen (equilibrium dialysis) to Kd for fibrin
T1 construct: Polymerised fibrin made in 96-well plates from fibrinogen and thrombin, dried at 37 C and rehydrated; also called (rehydrated) dried fibrin; fibrin target
T1 sequence (looked up) 1: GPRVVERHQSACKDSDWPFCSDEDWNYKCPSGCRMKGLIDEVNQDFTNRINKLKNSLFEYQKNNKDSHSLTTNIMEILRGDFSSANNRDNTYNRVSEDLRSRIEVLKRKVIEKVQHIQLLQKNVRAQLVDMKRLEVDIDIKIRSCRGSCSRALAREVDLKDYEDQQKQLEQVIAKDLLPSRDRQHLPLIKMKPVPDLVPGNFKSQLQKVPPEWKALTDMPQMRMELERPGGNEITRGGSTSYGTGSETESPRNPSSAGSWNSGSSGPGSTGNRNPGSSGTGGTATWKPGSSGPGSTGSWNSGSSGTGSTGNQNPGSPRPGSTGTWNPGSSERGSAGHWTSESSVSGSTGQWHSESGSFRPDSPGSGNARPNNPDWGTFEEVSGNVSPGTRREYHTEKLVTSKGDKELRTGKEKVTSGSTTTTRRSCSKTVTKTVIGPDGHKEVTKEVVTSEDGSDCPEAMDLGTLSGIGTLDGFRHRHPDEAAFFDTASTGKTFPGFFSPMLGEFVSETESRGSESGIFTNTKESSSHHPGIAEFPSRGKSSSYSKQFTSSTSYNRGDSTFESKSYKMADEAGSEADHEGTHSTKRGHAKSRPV
T1 sequence (looked up) 2: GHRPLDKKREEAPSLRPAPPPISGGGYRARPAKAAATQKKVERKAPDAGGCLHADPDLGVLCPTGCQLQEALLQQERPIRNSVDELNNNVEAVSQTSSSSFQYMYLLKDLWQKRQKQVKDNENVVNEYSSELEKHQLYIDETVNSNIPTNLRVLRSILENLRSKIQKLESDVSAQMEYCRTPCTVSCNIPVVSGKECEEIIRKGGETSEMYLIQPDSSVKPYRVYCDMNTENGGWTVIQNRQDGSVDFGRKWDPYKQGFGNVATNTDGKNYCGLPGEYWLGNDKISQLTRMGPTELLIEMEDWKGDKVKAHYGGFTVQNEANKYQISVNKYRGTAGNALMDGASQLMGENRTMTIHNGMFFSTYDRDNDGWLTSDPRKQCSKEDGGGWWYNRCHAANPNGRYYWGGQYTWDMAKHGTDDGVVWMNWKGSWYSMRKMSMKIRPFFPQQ
T1 sequence (looked up) 3: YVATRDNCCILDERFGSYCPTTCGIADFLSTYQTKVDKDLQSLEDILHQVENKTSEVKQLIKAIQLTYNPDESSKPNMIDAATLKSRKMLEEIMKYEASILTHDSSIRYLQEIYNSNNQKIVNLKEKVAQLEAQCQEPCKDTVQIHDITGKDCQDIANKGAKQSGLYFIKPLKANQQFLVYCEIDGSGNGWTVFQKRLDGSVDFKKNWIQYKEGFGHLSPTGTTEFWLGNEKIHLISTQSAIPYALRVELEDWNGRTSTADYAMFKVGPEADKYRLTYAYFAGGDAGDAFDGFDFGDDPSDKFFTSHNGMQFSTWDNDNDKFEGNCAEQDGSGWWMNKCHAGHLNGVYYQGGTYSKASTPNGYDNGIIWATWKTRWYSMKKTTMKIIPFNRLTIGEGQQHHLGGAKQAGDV
Experimental: (§1) A solution of fibrinogen (10 mg/ml) was mixed with the MR labeled peptide of Example 11 designated Gd-DTPA-Pep1, at concentrations of 10, 50 and 100 μM. The fibrinogen/peptide solution was placed on one side of a dialysis membrane in an equilibrium dialysis apparatus. The solution was allowed to equilibrate with an equal volume of buffer on the opposite side of the membrane.

fibrinogen = target: T2, fibrinogen (UniProt P02671 20-629; P02675 31-491; P02679 27-437, limits assumed); experiment: equilibrium dialysis, fibrinogen 10 mg/ml, peptide by I.C.P.
T2 sequence (looked up) 1: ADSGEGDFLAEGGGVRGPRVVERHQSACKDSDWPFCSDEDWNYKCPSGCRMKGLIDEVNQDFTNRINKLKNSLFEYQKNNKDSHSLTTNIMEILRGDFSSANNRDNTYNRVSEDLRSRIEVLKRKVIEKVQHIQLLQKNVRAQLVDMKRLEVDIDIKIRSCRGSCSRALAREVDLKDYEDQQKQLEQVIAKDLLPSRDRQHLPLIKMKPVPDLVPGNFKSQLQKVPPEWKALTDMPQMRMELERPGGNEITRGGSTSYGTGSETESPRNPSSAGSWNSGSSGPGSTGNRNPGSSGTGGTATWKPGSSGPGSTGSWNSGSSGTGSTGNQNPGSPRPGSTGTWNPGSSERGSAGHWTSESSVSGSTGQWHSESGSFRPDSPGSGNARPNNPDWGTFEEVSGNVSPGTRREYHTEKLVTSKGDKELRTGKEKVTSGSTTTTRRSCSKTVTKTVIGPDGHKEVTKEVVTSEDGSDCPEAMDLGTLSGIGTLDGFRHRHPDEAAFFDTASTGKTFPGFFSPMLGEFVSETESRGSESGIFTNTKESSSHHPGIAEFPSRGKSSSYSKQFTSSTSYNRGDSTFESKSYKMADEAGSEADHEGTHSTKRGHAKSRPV
T2 sequence (looked up) 2: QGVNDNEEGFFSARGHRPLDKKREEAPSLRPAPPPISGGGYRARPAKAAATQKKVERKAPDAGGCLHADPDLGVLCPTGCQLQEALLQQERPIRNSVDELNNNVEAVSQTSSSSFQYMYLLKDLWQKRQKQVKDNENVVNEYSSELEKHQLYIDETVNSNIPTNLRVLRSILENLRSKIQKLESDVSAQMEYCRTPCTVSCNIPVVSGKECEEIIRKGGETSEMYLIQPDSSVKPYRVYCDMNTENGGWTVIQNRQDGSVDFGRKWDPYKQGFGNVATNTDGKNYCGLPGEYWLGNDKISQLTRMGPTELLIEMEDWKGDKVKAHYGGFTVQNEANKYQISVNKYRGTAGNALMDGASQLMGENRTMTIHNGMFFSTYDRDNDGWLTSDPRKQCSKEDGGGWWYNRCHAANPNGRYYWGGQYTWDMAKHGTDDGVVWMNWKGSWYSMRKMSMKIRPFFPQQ
T2 sequence (looked up) 3: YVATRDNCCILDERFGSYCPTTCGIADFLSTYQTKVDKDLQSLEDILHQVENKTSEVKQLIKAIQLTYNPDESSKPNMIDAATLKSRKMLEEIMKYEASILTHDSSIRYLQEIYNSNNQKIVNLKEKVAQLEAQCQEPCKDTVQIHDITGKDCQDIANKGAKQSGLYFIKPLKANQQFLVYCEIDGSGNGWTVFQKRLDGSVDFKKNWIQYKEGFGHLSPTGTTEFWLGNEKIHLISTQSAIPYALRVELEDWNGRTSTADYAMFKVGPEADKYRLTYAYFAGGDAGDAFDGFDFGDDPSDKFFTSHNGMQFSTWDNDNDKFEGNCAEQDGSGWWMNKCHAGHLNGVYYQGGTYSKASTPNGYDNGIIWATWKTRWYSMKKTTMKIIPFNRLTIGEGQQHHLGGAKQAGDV
Experimental: as §1

dried fibrin [2] = target: T1, dried fibrin; experiment: dried fibrin plate, bound vs free peptide
[3] = target: T3, fibrin of an in vitro clot formed from human blood plasma (human, UniProt P02671 36-629; P02675 45-491; P02679 27-437); experiment: human plasma clotted in the presence of peptide, free peptide by Gd I.C.P., bound vs free fit
T3 construct: Plasma of a human donor clotted with CaCl2 in the presence of the peptide; also called in vitro blood clot
T3 sequence (looked up) 1: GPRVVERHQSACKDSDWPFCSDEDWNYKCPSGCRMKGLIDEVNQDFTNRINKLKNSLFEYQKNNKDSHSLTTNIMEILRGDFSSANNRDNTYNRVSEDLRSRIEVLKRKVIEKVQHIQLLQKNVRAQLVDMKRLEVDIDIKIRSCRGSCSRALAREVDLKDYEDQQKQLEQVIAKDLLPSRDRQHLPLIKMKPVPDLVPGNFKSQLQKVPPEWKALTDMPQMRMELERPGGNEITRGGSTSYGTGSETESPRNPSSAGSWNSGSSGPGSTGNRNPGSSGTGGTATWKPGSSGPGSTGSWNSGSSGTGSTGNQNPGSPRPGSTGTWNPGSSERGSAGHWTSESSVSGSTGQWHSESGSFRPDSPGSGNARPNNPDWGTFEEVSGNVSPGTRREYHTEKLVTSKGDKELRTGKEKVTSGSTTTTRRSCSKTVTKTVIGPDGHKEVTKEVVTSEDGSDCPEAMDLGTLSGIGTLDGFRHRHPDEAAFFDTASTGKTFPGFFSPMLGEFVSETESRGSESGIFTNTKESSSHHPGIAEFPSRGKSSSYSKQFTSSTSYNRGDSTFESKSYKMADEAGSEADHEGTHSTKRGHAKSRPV
T3 sequence (looked up) 2: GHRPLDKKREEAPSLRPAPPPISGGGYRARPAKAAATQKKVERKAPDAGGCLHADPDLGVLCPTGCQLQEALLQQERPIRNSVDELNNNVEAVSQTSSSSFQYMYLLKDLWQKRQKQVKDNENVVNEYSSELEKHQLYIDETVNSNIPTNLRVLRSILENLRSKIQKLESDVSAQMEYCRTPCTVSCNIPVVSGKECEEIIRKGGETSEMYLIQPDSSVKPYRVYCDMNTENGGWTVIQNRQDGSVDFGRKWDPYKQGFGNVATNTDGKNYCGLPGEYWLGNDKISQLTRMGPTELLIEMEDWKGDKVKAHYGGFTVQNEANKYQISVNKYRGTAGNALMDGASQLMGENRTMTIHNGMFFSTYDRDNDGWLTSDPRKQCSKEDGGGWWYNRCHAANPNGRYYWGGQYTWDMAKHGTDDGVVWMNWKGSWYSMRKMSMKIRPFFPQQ
T3 sequence (looked up) 3: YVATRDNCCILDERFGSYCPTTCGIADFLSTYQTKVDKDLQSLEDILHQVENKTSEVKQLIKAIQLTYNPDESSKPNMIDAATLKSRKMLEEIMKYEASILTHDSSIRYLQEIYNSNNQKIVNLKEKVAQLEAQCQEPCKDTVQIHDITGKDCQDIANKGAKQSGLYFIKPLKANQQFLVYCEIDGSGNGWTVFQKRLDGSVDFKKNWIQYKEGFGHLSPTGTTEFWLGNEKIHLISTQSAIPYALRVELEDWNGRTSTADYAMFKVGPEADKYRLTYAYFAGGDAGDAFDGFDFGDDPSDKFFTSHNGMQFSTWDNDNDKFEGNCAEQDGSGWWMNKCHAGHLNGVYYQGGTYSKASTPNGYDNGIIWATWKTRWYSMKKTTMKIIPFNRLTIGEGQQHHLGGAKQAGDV
Experimental: Freshly drawn whole blood was obtained from a human donor and centrifuged at 4000×g for 15 minutes to remove the hematocrit. The blood plasma (supernatant) was removed and dispensed into ten 1.5 ml tubes, 500 μL/tube. The MR labeled peptide of Example 11, GdDTPA-Pep1, was added to each tube at increasing concentrations (2, 5, 8, 10, 15, 20, 30, 50, 75, 100 μM) along with PBS buffer (50 mM sodium phosphate, 150 mM NaCl, pH 7.4) to bring the total volume to 550 μL. The sample was equilibrated at 37° C. A small aliquot (50 μL) was removed for quantitating the total peptide added (measured by Gd I.C.P. analysis after dilution into 0.1 M HNO₃). Clotting was initiated by the addition of 5 μL 2 M CaCl₂, and the samples are incubated at 37° C. for 1 hour. The tubes were spun down briefly (5 sec) and the clot was removed with a pipet tip. The remaining supernatant (˜200 μL) was diluted in HNO₃ and the peptide concentration (equal to the concentration of unbound or free peptide) was measured by Gd I.C.P. analysis. The difference between the total and free peptide concentrations yields the concentration of bound peptide.

specificity for fibrin over fibrinogen (fold) (dried fibrin [1]): ~70 fold | Kd (fibrinogen): 190 µM | Kd (dried fibrin [2]): 7.4 µM | Kd [3]: ~20 µM
B1: Gd-DTPA-Pep1 (peptide)
peptide: LPCDYYGTCLD
modifications: disulfide 3-9 (inferred); not fully specified (N-terminus); also: Gd(III)-DTPA chelate, from DTPA-Asp(beta-COOH)-OtBu
